# Publication PMC6554336, “C3-Glomerulopathy Autoantibodies Mediate Distinct Effects on Complement C3- and C5-Convertases” (Frontiers in Immunology, 2019)
# B1: Factor H (natural protein, UniProt P08603 19-1231, looked up)
# chain: EDCNELPPRRNTEILTGSWSDQTYPEGTQAIYKCRPGYRSLGNVIMVCRKGEWVALNPLRKCQKRPCGHPGDTPFGTFTLTGGNVFEYGVKAVYTCNEGYQLLGEINYRECDTDGWTNDIPICEVVKCLPVTAPENGKIVSSAMEPDREYHFGQAVRFVCNSGYKIEGDEEMHCSDDGFWSKEKPKCVEISCKSPDVINGSPISQKIIYKENERFQYKCNMGYEYSERGDAVCTESGWRPLPSCEEKSCDNPYIPNGDYSPLRIKHRTGDEITYQCRNGFYPATRGNTAKCTSTGWIPAPRCTLKPCDYPDIKHGGLYHENMRRPYFPVAVGKYYSYYCDEHFETPSGSYWDHIHCTQDGWSPAVPCLRKCYFPYLENGYNQNYGRKFVQGKSIDVACHPGYALPKAQTTVTCMENGWSPTPRCIRVKTCSKSSIDIENGFISESQYTYALKEKAKYQCKLGYVTADGETSGSITCGKDGWSAQPTCIKSCDIPVFMNARTKNDFTWFKLNDTLDYECHDGYESNTGSTTGSIVCGYNGWSDLPICYERECELPKIDVHLVPDRKKDQYKVGEVLKFSCKPGFTIVGPNSVQCYHFGLSPDLPICKEQVQSCGPPPELLNGNVKEKTKEEYGHSEVVEYYCNPRFLMKGPNKIQCVDGEWTTLPVCIVEESTCGDIPELEHGWAQLSSPPYYYGDSVEFNCSESFTMIGHRSITCIHGVWTQLPQCVAIDKLKKCKSSNLIILEEHLKNKKEFDHNSNIRYRCRGKEGWIHTVCINGRWDPEVNCSMAQIQLCPPPPQIPNSHNMTTTLNYRDGEKVSVLCQENYLIQEGEEITCKDGRWQSIPLCVEKIPCSQPPQIEHGTINSSRSSQESYAHGTKLSYTCEGGFRISEENETTCYMGKWSSPPQCEGLPCKSPPEISHGVVAHMSDSYQYGEEVTYKCFEGFGIDGPAIAKCLGEKWSHPPSCIKTDCLSLPSFENAIPMGEKKDVYKAGEQVTYTCATYYKMDGASNVTCINSRWTGRPTCRDTSCVNPPTVQNAYIVSRQMSKYPSGERVRYQCRSPYEMFGDEEVMCLNGNWTEPPQCKDSTGKCGPPPPIDNGDITSFPLSVYAPASSVEYQCQNLYQLEGNKRITCRNGQWSEPPKCLHPCVISREIMENYNIALRWTAKQKLYSRTGESVEFVCKRGYRLSSRSHTLRTTCWDGKLEYPTCAKR
# notes: complement Factor H; Used at 20 ug/ml; source: bought: CompTech
# Molecular target: T1, C3b (UniProt P01024 23-667; P01024 749-1663)
# T1 construct: Coated on the microtiter plate at 5 ug/ml; source: bought: CompTech
# Test: ELISA; C3-convertase assembled on coated C3b in the presence of patient IgGs for 45 min, then Factor H (20 ug/ml) added, 37°C; convertase-bound Bb detected at 15, 30 or 45 min with Factor B polyclonal antiserum, OD 450 nm
# Conditions: both partners purified
# T1 sequence (P01024 23-667, chain 1 of 2): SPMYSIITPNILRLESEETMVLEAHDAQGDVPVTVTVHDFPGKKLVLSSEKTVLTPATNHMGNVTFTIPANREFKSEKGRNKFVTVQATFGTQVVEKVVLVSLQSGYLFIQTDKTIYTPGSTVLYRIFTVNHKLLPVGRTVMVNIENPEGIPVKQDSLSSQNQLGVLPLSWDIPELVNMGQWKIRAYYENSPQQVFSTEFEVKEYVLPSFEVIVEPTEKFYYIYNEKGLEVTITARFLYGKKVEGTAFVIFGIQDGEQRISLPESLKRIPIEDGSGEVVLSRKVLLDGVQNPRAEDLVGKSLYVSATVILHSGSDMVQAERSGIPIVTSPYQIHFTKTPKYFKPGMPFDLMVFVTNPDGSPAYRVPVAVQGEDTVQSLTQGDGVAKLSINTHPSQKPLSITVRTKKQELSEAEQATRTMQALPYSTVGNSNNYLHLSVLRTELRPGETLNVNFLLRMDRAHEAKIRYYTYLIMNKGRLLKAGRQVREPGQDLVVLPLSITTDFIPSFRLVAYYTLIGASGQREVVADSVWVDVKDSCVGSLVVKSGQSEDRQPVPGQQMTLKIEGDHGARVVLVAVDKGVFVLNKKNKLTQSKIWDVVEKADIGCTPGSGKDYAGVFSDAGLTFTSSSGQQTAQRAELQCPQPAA
# T1 sequence (P01024 749-1663, chain 2 of 2): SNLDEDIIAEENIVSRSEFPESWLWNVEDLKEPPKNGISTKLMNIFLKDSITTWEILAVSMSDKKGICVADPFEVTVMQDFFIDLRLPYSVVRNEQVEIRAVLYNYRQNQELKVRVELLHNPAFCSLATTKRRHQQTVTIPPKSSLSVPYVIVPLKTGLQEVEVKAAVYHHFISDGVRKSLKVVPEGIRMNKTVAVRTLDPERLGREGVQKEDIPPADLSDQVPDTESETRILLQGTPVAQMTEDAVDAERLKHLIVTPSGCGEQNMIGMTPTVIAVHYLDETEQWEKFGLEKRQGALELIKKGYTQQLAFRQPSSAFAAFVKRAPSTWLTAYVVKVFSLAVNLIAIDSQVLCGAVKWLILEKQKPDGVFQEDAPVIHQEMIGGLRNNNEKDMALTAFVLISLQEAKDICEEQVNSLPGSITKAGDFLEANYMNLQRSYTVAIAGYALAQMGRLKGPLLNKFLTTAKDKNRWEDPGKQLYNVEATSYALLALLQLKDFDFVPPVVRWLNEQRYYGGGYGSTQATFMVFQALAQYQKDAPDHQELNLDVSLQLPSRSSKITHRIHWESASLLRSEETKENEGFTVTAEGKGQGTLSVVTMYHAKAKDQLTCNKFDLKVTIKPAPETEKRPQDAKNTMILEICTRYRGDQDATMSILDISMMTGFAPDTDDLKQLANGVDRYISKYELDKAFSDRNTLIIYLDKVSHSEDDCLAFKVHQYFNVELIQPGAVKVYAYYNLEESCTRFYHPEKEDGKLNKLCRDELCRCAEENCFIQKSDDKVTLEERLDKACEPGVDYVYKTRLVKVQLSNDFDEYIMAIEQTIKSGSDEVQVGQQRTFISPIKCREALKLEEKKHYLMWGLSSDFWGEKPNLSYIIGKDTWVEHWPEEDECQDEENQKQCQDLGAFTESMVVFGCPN
binder,measurement,value
B1,binding result,binds
